Two molecules from patent publication US20260055172A1 (CATALYM, published 2026) can be followed below.

Substitutions are numbered along the chain they refer to. Names and notes keep the numbering of the source.

In assay [1] the target is T1, cynomolgus GDF-15 (cynomolgus monkey, UniProt G7PWZ3 193-308, limits assumed).
T1 construct: also called NHP GDF-15
T1 sequence (looked up): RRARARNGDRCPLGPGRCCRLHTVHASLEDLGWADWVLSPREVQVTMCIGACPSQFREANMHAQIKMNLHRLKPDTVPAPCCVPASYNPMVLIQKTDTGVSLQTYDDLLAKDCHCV
In words: KD from PK-PD model fitted to in vivo NHP data (not a direct binding assay); in vivo KD fitted by the NHP PK-PD model, not an in vitro binding assay.

Assay [2] deals with T2, recombinant human GDF-15 (human, UniProt Q99988 195-308).
T2 sequence (looked up): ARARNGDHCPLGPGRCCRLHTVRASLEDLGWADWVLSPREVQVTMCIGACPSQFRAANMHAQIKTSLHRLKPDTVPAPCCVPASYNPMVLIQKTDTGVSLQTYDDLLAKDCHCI
The assay is described as follows: cell-based or functional assay.

In assay [3] the target is T2, recombinant human GDF-15. The assay is described as follows: SPR (Biacore T3000): CTL-002 on the flow cell (per paragraph 142 an anti-human IgG Fc antibody is immobilized on the CM5 chip), human GDF-15 injected at 247, 370, 556, 833 and 1250 pM, global fit; one representative measurement of three. Here is the method: (§1) All experiments were performed in 10 mM HEPES buffer, pH 7.4, 150 mM NaCl, 3.4 mM EDTA and 0.05% Tween. anti-human IgG Fc specific antibody (Jackson, Order #109-005-008, Lot #111148) was covalently immobilized by EDC/NHS chemistry on Biacore CM5 Chips (GE Healthcare, Order #61144275, Lot #10236645). For kinetic characterization of the antigen-antibody interaction pulses of increasing GDF-15 concentrations (e.g. 156.3 pM, 312 pM, 625 pM, 1,250 pM) were injected at a flow rate of 30 μl/min. After each measurement cycle (8 min of association followed by 30 min of dissociation) the antibody-antigen complex was resolved by regeneration of the surface with 10 mM glycine-HCl at pH 2.0. […] For global fit analysis only, these antigen concentrations were taken into account, which allowed the analysis following the Langmuir 1:1 binding model or 1:1 binding with drifting baseline.
In general terms: SPR reads the build-up and loss of mass on a sensor chip optically.

For a further assay, the target named is T3, mouse GDF-15 (mouse, UniProt Q9Z0J7 189-303).
T3 construct: also called murine GDF-15
T3 sequence (looked up): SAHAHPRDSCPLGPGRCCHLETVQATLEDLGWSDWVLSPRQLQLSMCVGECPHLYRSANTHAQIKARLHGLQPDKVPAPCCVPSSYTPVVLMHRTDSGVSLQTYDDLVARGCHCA
In words: SPR, Biacore T3000; CTL-002 on immobilized anti-human IgG Fc antibody, GDF-15 injected. Here is the method: (§2) In addition, the affinity to cynomolgus rat and mouse GDF-15 was measured (see Table 2).
as §1

Assay [4] deals with T1, cynomolgus GDF-15. Described as above. As for the experimental part: as §2, §1
In another assay the target is T4, rat GDF-15 (rat, UniProt Q9Z0J6 189-303).
T4 sequence (looked up): T3 sequence (looked up) with A4L, Q63L, K75R, R110Q
The description is as above. Here is the method: as §2, §1

Assay [5] has as its target T2, recombinant human GDF-15. The description is as above. As for the experimental part:
as §2, §1

Assay [6] has as its target human complement protein C1q (human, UniProt P02745 23-245; P02746 28-253; P02747 29-245). The assay is described as follows: ELISA, antibody incubated on coated human GDF-15, then 10 µg/ml human C1q, detection with HRP-conjugated anti-C1q antibody. Here is the method: Interaction of C1q protein and therapeutic antibody was determined in an ELISA-based approach with 10 μg/ml human C1q protein using a HRP-conjugated anti-C1q antibody for detection. Here, CTL-001 and the different isotype variants were incubated to prior coated human GDF-15 protein before C1q binding was obtained. Experiment was performed in triplicated and mean of absorption (A450 nm) was plotted against the antibody concentration.
In general terms: In an ELISA, binding on a coated surface is turned into a signal by an enzyme label.

Sequence of human complement protein C1q (P02745 23-245 limits assumed, chain 1 of 3): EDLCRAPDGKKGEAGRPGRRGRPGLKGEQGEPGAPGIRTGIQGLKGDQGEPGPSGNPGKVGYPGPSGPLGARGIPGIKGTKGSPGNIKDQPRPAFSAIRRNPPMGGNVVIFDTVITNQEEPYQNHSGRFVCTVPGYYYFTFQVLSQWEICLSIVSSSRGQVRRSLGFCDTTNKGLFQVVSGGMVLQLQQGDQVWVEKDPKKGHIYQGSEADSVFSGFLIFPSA
Sequence of human complement protein C1q (P02746 28-253 limits assumed, chain 2 of 3): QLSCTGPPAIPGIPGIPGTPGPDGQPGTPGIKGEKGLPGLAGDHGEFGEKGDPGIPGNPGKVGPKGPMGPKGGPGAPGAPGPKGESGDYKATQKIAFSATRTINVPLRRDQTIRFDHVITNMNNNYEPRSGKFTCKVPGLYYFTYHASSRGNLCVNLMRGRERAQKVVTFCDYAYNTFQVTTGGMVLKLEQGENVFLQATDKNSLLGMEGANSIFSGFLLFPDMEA
Sequence of human complement protein C1q (P02747 29-245 limits assumed, chain 3 of 3): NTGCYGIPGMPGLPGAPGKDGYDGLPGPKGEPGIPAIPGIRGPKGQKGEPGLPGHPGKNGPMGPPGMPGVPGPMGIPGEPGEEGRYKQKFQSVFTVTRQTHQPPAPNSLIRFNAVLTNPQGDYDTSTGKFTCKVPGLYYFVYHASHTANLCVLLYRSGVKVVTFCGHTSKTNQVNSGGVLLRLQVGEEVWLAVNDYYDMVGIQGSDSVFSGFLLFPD

B1: CTL-002 (antibody, human IgG4 S228P, kappa)
heavy: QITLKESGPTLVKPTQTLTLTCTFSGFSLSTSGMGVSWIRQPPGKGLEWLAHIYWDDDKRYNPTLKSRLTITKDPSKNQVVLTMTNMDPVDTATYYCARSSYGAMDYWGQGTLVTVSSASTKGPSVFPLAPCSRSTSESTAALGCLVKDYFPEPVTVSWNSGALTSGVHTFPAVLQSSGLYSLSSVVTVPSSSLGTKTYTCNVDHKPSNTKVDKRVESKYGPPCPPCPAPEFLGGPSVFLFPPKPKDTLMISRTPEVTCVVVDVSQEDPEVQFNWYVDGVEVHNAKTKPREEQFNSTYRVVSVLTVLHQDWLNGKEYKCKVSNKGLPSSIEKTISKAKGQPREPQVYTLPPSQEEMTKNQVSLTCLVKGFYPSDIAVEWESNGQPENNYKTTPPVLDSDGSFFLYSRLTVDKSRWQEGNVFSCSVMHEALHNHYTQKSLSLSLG
light: DIVLTQSPSFLSASVGDRVTITCKASQNVGTNVAWFQQKPGKSPKALIYSASYRYSGVPDRFTGSGSGTEFTLTISSLQPEDFAAYFCQQYNNFPYTFGGGTKLEIKRTVAAPSVFIFPPSDEQLKSGTASVVCLLNNFYPREAKVQWKVDNALQSGNSQESVTEQDSKDSTYSLSSTLTLSKADYEKHKVYACEVTHQGLSSPVTKSFNRGEC
notes: Humanized, hinge-stabilized IgG4 (IgG4 S228P) derived from mouse antibody B1-23; also called CTL-001 IgG4*; CTL-001 IgG4
In the case of B1, the Kd – broadly, a measure of binding affinity in units of concentration – in the assay with cynomolgus GDF-15 [1] was determined as 0.019 nM; in the assay with recombinant human GDF-15 [3] it was 0.0338 nM; in the assay with mouse GDF-15, 9.76 nM; with cynomolgus GDF-15 [4] it was 0.108 nM; with rat GDF-15, 0.449 nM; with recombinant human GDF-15 [5], 0.0383 nM. The “EC50, rescue of CD8+ T-cell adhesion (flow-adhesion assay)” value with recombinant human GDF-15 [2] is approximately 0.7 mg/L. The “EC50, reversal of GDF-15 mediated inhibition of T cell adhesion (in vitro flow-adhesion assay, 50 ng/ml GDF-15)” value in the assay with recombinant human GDF-15 [2] lay in the range of 0.69 to 0.725 mg/L. In addition, the “EC50 of CTL-002 in the flow-adhesion assay with T cells” value with recombinant human GDF-15 [2] is 0.707 mg/L. Besides, the binding result in assay [6] is on record as “no binding (tested: about 25 µg/ml (leftmost visible marker))”.

B2: CTL-001 (antibody, human IgG1, kappa)
heavy: not shown
light: B1 light
notes: Humanized IgG1 with a kappa light chain; also called H1L5; B1-23-H1L5
Consider B2, for which the binding result in assay [6] was “no binding (tested: about 25 µg/ml (leftmost visible marker))”.
